Measured values from patent publication US20100291089A1, “LIGAND OF REGULATING IMMUNE RESPONSE, AND USE THEREOF IN TREATING AN IMMUNE RESPONSE-RELATED DISEASE” (POSTECH ACADEMY-INDUSTRY FOUNDATION, priority 2005, published 2010).
Where no end group is shown, it is not given here. [ ]: non-standard residue; d: D form.

B1: SAA: Serum amyloid A, multi-functional apolipoprotein, 12- to 14-kDa, SEQ ID NO:19 (protein, listed as Homo sapiens)
chain: MKLLTGLVFCSLVLGVSSRSFFSFLGEAFDGARDMWRAYSDMREANYIGSDKYFHARGNYDAAKRGPGGVWAAEAISDARENIQRFFGHGAEDSLADQAANEWGRSGKDPNHFRPAGLPEKY

What was measured:
RA FLS [1] = experiment: Intracellular Ca2+ measurement (Fluo3-AM) in RA FLS; type: cell-based, human
Description: The isolated FLS were incubated with Fluo3-AM working solution, containing 0.03% plutonic F-127 (the final concentration of Fluo3-AM was 20 μmol·L^−1) for 1 h at 37° C. After incubation, the cells were washed three times with normal or Na^+- and K^+-free Tyrode's solution, at 25° C. in order to remove the extracellular Fluo3-AM. Fluo3-AM fluorescence in the cells was elicited at 488 nm with a high-power Ar^+ laser, and the emission bands were detected at 530 nm with a photomultiplier. The fluorescence signal was detected using a confocal laser scanning system (Biorad Lasersharp MRA2, Oxfordshire, UK), equipped with a Nikon E-600 Eclipse microscope. The fluorescence intensity (FI) was measured both prior to (FI0) and after (FI) the addition of serum amyloid A (SAA) or phorbol-12-myristate-13-acetate (PMA) to either the normal the Na^+- and K^+-free Tyrode's solution. The change in [Ca^2+]i, was expressed in terms of the (FI−FI0)/FI0 ratio. A total of 50-120 images were scanned in each cell.

C57BL/6 mice = experiment: Mouse Matrigel plug assay; type: in vivo; conditions: 7 days; for vessels in Matrigel (stained sections): SAA 80 μg or WKYMVm 1 μg
Description: C57BL/6 mice (7 weeks of age) were given s.c. injections of 500 μl of Matrigel containing PBS, SAA (SEQ ID NO:19) (80 μg), or WKYMVm (SEQ ID NO:5) (1 μg). After 7 days, the skins of the mice were pulled back to expose the Matrigel plugs, which remained intact. After the noting and photographing of any quantitative differences, hemoglobin levels were measured via the Drabkin method, using a Drabkin reagent kit 525 (Sigma) for the quantitative assessment of blood vessel formation. The hemoglobin concentration was calculated from the parallel assay of a known amount of hemoglobin. The matrigel plugs were fixed in 4% formalin, embedded with paraffin, and stained using hematoxylin and eosin.

RA FLS [2] = experiment: Cell proliferation assay ([3H]-thymidine incorporation, cell counts) in RA FLS; type: cell-based, human; conditions: 72 h
Description: (§1) Fibroblast-like synoviocytes (FLS) were prepared from synovial samples obtained from patients suffering from RA and osteoarthritis (OA), all of whom were also undergoing total joint replacement surgery. The FLS were isolated from the synovial tissues in accordance with a previously described procedure (Cho, C. S., M. L. Cho, S. Y. Min, W. U. Kim, D. J. Min, S. S. Lee, S. H. Park, J. Choe, and H. Y. Kim. 2000. CD40 engagement on synovial fibroblast up-regulates production of vascular endothelial growth factor. J. Immunol. 164: 5055-5061).
(§2) In brief, fresh synovial tissues were minced into 2- to 3-mm pieces, then treated for 4 h with 4 mg/ml type I collagenase (Worthington Biochemical), and maintained in Dulbecco's Modified Eagle's Medium (DMEM) containing 10% FBS at 37° C. in an atmosphere containing 5% CO2. […] MH7A cells, the immortalized synoviocytes that harbor the SV40 T antigen, were grown in DMEM supplemented with 10% FBS, as previously described (Miyazawa, K, A. Mori, and H. Okudaira. 1998. Establishment and characterization of a novel human rheumatoid fibroblast-like synoviocyte line, MH7A, immortalized with SV40T antigen. J. Biochem. 124: 1153-1162), and then employed in some of the experiments. Human umbilical vein endothelial cells (HUVECs) were isolated from fresh human umbilical cords via collagenase (Worthington Biochemical) digestion, and then maintained in 20% FBS-containing M-199 medium (Sigma, St. Louis, Mo.), as previously described. All HUVECs were used after no more than five passages.
(§3) The RA FLS, OA FLS, and HUVECs were plated onto 24-well culture dishes at a density of 2×10^4 cells/well, and then permitted to attach overnight. After 24 h of serum starvation, the cells were treated for 72 h with a variety of mitogens. [^3H]-thymidine (1 μCi) was added to each of the wells prior to the final 6 h of incubation. Cell growth was also evaluated via cell counts. Control and mitogen-treated cells were harvested by trypsinization, and the number of cells was determined with a hemocytometer, under ×100 magnification.

RA FLS [3] = experiment: Western blot analysis of signaling molecules in RA FLS; type: cell-based, human; conditions: for time of peak cyclin D1 expression: SAA 3 μM or WKYMVm 10 nM
Description: RA FLS were incubated for 24 h in DMEM without FBS, and then SAA (SEQ ID NO:19) (3 μM) was added to RA-FLS for the indicated times. The treated RA-FLS was then washed twice in phosphate-buffered saline (PBS), dissolved in sample buffer (50 mM Tris-HCl, 100 mM NaCl, 0.1% sodium dodecyl sulfate (SDS), 1% NP-40, 50 mM NaF, 1 mM Na3VO4, 1 μg/ml aprotinin, 1 μg/ml pepstatin, and 1 μg/ml leupeptin), boiled, separated via SDS-polyacrylamide gel electrophoresis, and transferred to nitrocellulose membranes. After immunoblot analysis with phospho-ERK1/2 (Thr 202/Tyr 204), phospho-Akt (Ser 473), phospho-STAT3 (Tyr 705), Cylin D1, or Bcl-2 antibodies, the membranes were stripped and re-incubated with anti-Actin antibody in order to detect total protein amounts.

HUVECs = experiment: HUVEC wounding migration assay; type: cell-based, human; conditions: SAA 5 μM, WKYMVm 10 nM, VEGF 20 ng/ml; 12 h
Description: […] After 12 h of incubation, migration was quantitated via counts of the cells migrating beyond the reference line. For the tube formation assay, the HUVECs were seeded on a layer of previously polymerized Matrigel (BD Biosciences) with SAA (SEQ ID NO:19) (5 μg/ml), WKYMVm (SEQ ID NO:5) peptide (10 nM), a specific ligand for FPRL1 (32, 33) or VEGF (20 ng/ml). After 18 h of incubation, the cell morphology was visualized via phase-contrast microscopy and photographed.

OA FLS = experiment: Cell proliferation assay ([3H]-thymidine incorporation, cell counts) in OA FLS; type: cell-based, human; conditions: 72 h
Description: as §1, §2, §3

Molecule | release of intracellular Ca2+ (RA FLS [1]; WKYMVm 10 nM) | vessels in Matrigel (stained sections) (C57BL/6 mice) | DNA synthesis activity / proliferation ([3H]-thymidine incorporation) (RA FLS [2]) | time of peak cyclin D1 expression (RA FLS [3]) [h] | activation of ERK and Akt (RA FLS [3]; WKYMVm 1 to 1000 nM) | migratory activity of HUVECs relative to control cells (HUVECs) | DNA synthesis activity / proliferation ([3H]-thymidine incorporation) (OA FLS) | increase in intracellular Ca2+ compared to basal levels (RA FLS [1]; RA FLS, SAA 3 μM) [fold] | mean hemoglobin content of Matrigels (C57BL/6 mice; SAA 80 μg in Matrigel s.c.) [g/dL] | cell numbers (RA FLS [2]) | concentration of maximal effect on DNA synthesis (RA FLS [2]) [µM] | earliest detectable ERK1/2 and Akt phosphorylation after stimulation (RA FLS [3]; 3 μM SAA) [min] | cell numbers (OA FLS) | concentration of maximal effect on DNA synthesis (OA FLS) [µM]
WKYMVm: specific agonist peptide for FPRL1, SEQ ID NO:5 (WKYMV[dM]; listed as Homo sapiens) | mimicked | more vessels | dose-dependent increase | 4 | dose and time-dependent activation | approximately 3 times | not OA FLS | – | – | – | – | – | – | –
B1 | – | more vessels | increased in a dose-dependent fashion | 4 | – | approximately 3 times | increased in a dose-dependent fashion | 2.3 | 4.90 ± 0.66 | dose-dependently increased | 5 | 1 | dose-dependently increased | 5
